Reference: US20140087995A1 (published 2014)
Numbering of substitutions follows the chain as printed. Numbered stars: 1 amine (or outer) side, 2 acyl side, 3 side chain; on linkers, the order of the positions; unused ones are H or OH. Bridge positions count the residues as written; N and C are the ends. Side chains are listed from the residue outwards. Ends that are not written are not given here. * marks the point of attachment. C20 diacid = O=C(O)CCCCCCCCCCCCCCCCCCC(=O)*; γGlu = O=C(O)[C@H](CCC(=O)[*:2])N[*:1]; AEEA = NCCOCCOCC(=O)O

B1: N^ε1-[(4S)-4-carboxy-4-(19-carboxynonadecanoylamino)butanoyl]-[His14,Arg17,Pro21,Pro27,Pro31]-h-amylin (peptide)
peptide: K([γGlu-C20 diacid])CNTATCATQRLAHFLRHSSPNFGAIPSSTPVGSNTY-NH2
modifications: disulfide 2-7; N-terminus assumed
SMILES: CC[C@H](C)[C@H](NC(=O)[C@H](C)NC(=O)CNC(=O)[C@H](Cc1ccccc1)NC(=O)[C@H](CC(N)=O)NC(=O)[C@@H]1CCCN1C(=O)[C@H](CO)NC(=O)[C@H](CO)NC(=O)[C@H](Cc1c[nH]cn1)NC(=O)[C@H](CCCNC(=N)N)NC(=O)[C@H](CC(C)C)NC(=O)[C@H](Cc1ccccc1)NC(=O)[C@H](Cc1c[nH]cn1)NC(=O)[C@H](C)NC(=O)[C@H](CC(C)C)NC(=O)[C@H](CCCNC(=N)N)NC(=O)[C@H](CCC(N)=O)NC(=O)[C@@H](NC(=O)[C@H](C)NC(=O)[C@@H]1CSSC[C@H](NC(=O)[C@@H](N)CCCCNC(=O)CC[C@H](NC(=O)CCCCCCCCCCCCCCCCCCC(=O)O)C(=O)O)C(=O)N[C@@H](CC(N)=O)C(=O)N[C@@H]([C@@H](C)O)C(=O)N[C@@H](C)C(=O)N[C@@H]([C@@H](C)O)C(=O)N1)[C@@H](C)O)C(=O)N1CCC[C@H]1C(=O)N[C@@H](CO)C(=O)N[C@@H](CO)C(=O)N[C@H](C(=O)N1CCC[C@H]1C(=O)N[C@H](C(=O)NCC(=O)N[C@@H](CO)C(=O)N[C@@H](CC(N)=O)C(=O)N[C@H](C(=O)N[C@@H](Cc1ccc(O)cc1)C(N)=O)[C@@H](C)O)C(C)C)[C@@H](C)O
notes: also called compound 62
B2: N^ε1N^ε1-[(4S)-4-carboxy-4-(19-carboxynonadecanoylamino)butanoyl]-[His14,Arg17,Pro21,Pro27,Pro34]-h-amylin (peptide)
peptide: K([γGlu-C20 diacid])CNTATCATQRLAHFLRHSSPNFGAIPSSTNVGPNTY-NH2
modifications: disulfide 2-7; N-terminus assumed
SMILES: CC[C@H](C)[C@H](NC(=O)[C@H](C)NC(=O)CNC(=O)[C@H](Cc1ccccc1)NC(=O)[C@H](CC(N)=O)NC(=O)[C@@H]1CCCN1C(=O)[C@H](CO)NC(=O)[C@H](CO)NC(=O)[C@H](Cc1c[nH]cn1)NC(=O)[C@H](CCCNC(=N)N)NC(=O)[C@H](CC(C)C)NC(=O)[C@H](Cc1ccccc1)NC(=O)[C@H](Cc1c[nH]cn1)NC(=O)[C@H](C)NC(=O)[C@H](CC(C)C)NC(=O)[C@H](CCCNC(=N)N)NC(=O)[C@H](CCC(N)=O)NC(=O)[C@@H](NC(=O)[C@H](C)NC(=O)[C@@H]1CSSC[C@H](NC(=O)[C@@H](N)CCCCNC(=O)CC[C@H](NC(=O)CCCCCCCCCCCCCCCCCCC(=O)O)C(=O)O)C(=O)N[C@@H](CC(N)=O)C(=O)N[C@@H]([C@@H](C)O)C(=O)N[C@@H](C)C(=O)N[C@@H]([C@@H](C)O)C(=O)N1)[C@@H](C)O)C(=O)N1CCC[C@H]1C(=O)N[C@@H](CO)C(=O)N[C@@H](CO)C(=O)N[C@H](C(=O)N[C@@H](CC(N)=O)C(=O)N[C@H](C(=O)NCC(=O)N1CCC[C@H]1C(=O)N[C@@H](CC(N)=O)C(=O)N[C@H](C(=O)N[C@@H](Cc1ccc(O)cc1)C(N)=O)[C@@H](C)O)C(C)C)[C@@H](C)O
notes: also called compound 67
B3: N^α1-[(4S)-4-carboxy-4-(19-carboxynonadecanoylamino)butanoyl]-[Glu14,Arg17,Pro21,Pro27]-h-amylin (peptide)
peptide: KCNTATCATQRLAEFLRHSSPNFGAIPSSTNVGSNTY
modifications: C20 diacid-gGlu on the alpha amino group of the N-terminal residue; Cys2-Cys7 disulfide and C-terminal amide as in human amylin
notes: also called compound 9
B4: N^α1-[2-[2-[2-[[2-[2-[2-[[(4S)-4-carboxy-4-(19-carboxynonadecanoylamino)butanoyl]amino]ethoxy]ethoxy]acetyl]amino]ethoxy]ethoxy]acetyl]-[Arg17,Pro21,Pro27]-h-am … (peptide)
peptide: B3 peptide with E14N
modifications: C20 diacid-gGlu-2xOEG on the alpha amino group of the N-terminal residue; Cys2-Cys7 disulfide and C-terminal amide as in human amylin
notes: also called compound 24
B5: N^α1-[2-[2-[2-[[2-[2-[2-[[(4S)-4-carboxy-4-(19-carboxynonadecanoylamino)butanoyl]amino]ethoxy]ethoxy]acetyl]amino]ethoxy]ethoxy]acetyl]-[Glu14,Arg17,Pro21,Pro27 … (peptide)
peptide: {C20 diacid-γGlu-AEEA-AEEA}-KCNTATCATQRLAEFLRHSSPNFGAIPSSTNVGSNTP-NH2
modifications: disulfide 2-7
SMILES: CC[C@H](C)[C@H](NC(=O)[C@H](C)NC(=O)CNC(=O)[C@H](Cc1ccccc1)NC(=O)[C@H](CC(N)=O)NC(=O)[C@@H]1CCCN1C(=O)[C@H](CO)NC(=O)[C@H](CO)NC(=O)[C@H](Cc1c[nH]cn1)NC(=O)[C@H](CCCNC(=N)N)NC(=O)[C@H](CC(C)C)NC(=O)[C@H](Cc1ccccc1)NC(=O)[C@H](CCC(=O)O)NC(=O)[C@H](C)NC(=O)[C@H](CC(C)C)NC(=O)[C@H](CCCNC(=N)N)NC(=O)[C@H](CCC(N)=O)NC(=O)[C@@H](NC(=O)[C@H](C)NC(=O)[C@@H]1CSSC[C@H](NC(=O)[C@H](CCCCN)NC(=O)COCCOCCNC(=O)COCCOCCNC(=O)CC[C@H](NC(=O)CCCCCCCCCCCCCCCCCCC(=O)O)C(=O)O)C(=O)N[C@@H](CC(N)=O)C(=O)N[C@@H]([C@@H](C)O)C(=O)N[C@@H](C)C(=O)N[C@@H]([C@@H](C)O)C(=O)N1)[C@@H](C)O)C(=O)N1CCC[C@H]1C(=O)N[C@@H](CO)C(=O)N[C@@H](CO)C(=O)N[C@H](C(=O)N[C@@H](CC(N)=O)C(=O)N[C@H](C(=O)NCC(=O)N[C@@H](CO)C(=O)N[C@@H](CC(N)=O)C(=O)N[C@H](C(=O)N1CCC[C@H]1C(N)=O)[C@@H](C)O)C(C)C)[C@@H](C)O
notes: also called compound 20
B6: N^α1-[(4S)-4-carboxy-4-(19-carboxynonadecanoylamino)butanoyl]-[Arg17,Pro21,Pro27,Lys35]-h-amylin (peptide)
peptide: B3 peptide with E14N, N35K
modifications: C20 diacid-gGlu on the alpha amino group of the N-terminal residue; Cys2-Cys7 disulfide and C-terminal amide as in human amylin
notes: also called compound 34
B7: N^α1-[(4S)-4-carboxy-4-(19-carboxynonadecanoylamino)butanoyl]-[Arg17,Pro21,Pro27,Pro34,Glu35]-h-amylin (peptide)
peptide: {C20 diacid-γGlu}-KCNTATCATQRLANFLRHSSPNFGAIPSSTNVGPETY-NH2
modifications: disulfide 2-7
SMILES: CC[C@H](C)[C@H](NC(=O)[C@H](C)NC(=O)CNC(=O)[C@H](Cc1ccccc1)NC(=O)[C@H](CC(N)=O)NC(=O)[C@@H]1CCCN1C(=O)[C@H](CO)NC(=O)[C@H](CO)NC(=O)[C@H](Cc1c[nH]cn1)NC(=O)[C@H](CCCNC(=N)N)NC(=O)[C@H](CC(C)C)NC(=O)[C@H](Cc1ccccc1)NC(=O)[C@H](CC(N)=O)NC(=O)[C@H](C)NC(=O)[C@H](CC(C)C)NC(=O)[C@H](CCCNC(=N)N)NC(=O)[C@H](CCC(N)=O)NC(=O)[C@@H](NC(=O)[C@H](C)NC(=O)[C@@H]1CSSC[C@H](NC(=O)[C@H](CCCCN)NC(=O)CC[C@H](NC(=O)CCCCCCCCCCCCCCCCCCC(=O)O)C(=O)O)C(=O)N[C@@H](CC(N)=O)C(=O)N[C@@H]([C@@H](C)O)C(=O)N[C@@H](C)C(=O)N[C@@H]([C@@H](C)O)C(=O)N1)[C@@H](C)O)C(=O)N1CCC[C@H]1C(=O)N[C@@H](CO)C(=O)N[C@@H](CO)C(=O)N[C@H](C(=O)N[C@@H](CC(N)=O)C(=O)N[C@H](C(=O)NCC(=O)N1CCC[C@H]1C(=O)N[C@@H](CCC(=O)O)C(=O)N[C@H](C(=O)N[C@@H](Cc1ccc(O)cc1)C(N)=O)[C@@H](C)O)C(C)C)[C@@H](C)O
notes: also called compound 29

The binders below were run against T1, human calcitonin receptor (human, UniProt P30988 25-474) (assay: SPA competition against 125I-calcitonin, membranes with human calcitonin receptor (Assay VII)).
T1 construct: whole, on cells; Used as cell membranes prepared from the transfected BHK cells (Assay VII), not as intact cells; also called hCTR; hCT
T1 sequence (looked up): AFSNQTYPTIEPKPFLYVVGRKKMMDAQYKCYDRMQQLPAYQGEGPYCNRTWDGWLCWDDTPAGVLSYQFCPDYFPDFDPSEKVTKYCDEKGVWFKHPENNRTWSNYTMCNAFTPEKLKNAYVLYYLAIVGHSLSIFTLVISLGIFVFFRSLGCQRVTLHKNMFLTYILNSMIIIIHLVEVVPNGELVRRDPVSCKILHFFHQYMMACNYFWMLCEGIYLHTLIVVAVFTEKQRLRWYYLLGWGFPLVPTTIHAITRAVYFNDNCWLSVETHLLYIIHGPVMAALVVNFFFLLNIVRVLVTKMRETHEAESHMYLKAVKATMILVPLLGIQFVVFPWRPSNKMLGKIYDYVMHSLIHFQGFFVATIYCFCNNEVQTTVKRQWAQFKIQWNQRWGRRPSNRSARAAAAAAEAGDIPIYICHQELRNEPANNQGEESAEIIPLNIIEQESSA
Outline: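 BHK hCTR membranes 35 ng/μL + SPA beads 0.05 mg/well; buffer 50 mM Hepes pH 7.4, 1 mM CaCl2, 5 mM MgCl₂, 0.1% OA, 0.02% Tween20. 120 min, 25° C., shaking. Scintillation count; IC50 by one-site binding competition.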

Binder	IC50
B1	6.17 nM
B2	4.63 nM

These binders were tested against T2, human amylin receptor (amylin 3(a) receptor: human calcitonin receptor plus RAMP-3) (human, UniProt P30988 25-474; O60896 24-148, limits assumed) (assay: cell-based or functional assay).
T2 sequence (looked up) 1: T1 sequence (looked up)
T2 sequence (looked up) 2: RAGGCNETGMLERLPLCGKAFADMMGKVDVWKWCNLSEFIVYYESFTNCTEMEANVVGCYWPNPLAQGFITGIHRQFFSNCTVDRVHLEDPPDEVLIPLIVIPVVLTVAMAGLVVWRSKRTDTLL

Binder	hAmylin-R funct. EC50
B3	0.175 nM
B4	0.433 nM
B5	0.08 nM
B6	0.313 nM
B7	0.099 nM

Each binder was assayed against T3, human calcitonin receptor (human, UniProt P30988 25-474) (assay: cell-based or functional assay).
T3 sequence (looked up): T1 sequence (looked up)

Binder	Ratio hCT/hAmylin funct. (hCTR EC50 against hAmylin-R EC50)	hCTR funct. EC50
B3	7.4	1.29 nM
B4	23.1	10 nM
B5	3.6	0.285 nM
B6	8.4	2.62 nM
B7	8.7	0.857 nM

What follows are binders tested against T2, human amylin receptor (amylin 3(a) …) (assay: SPA competition binding, membranes of Amylin 3(a)/CRE-luc BHK cells, displacement of 125I-rat amylin (Assay V)).
Method: The binding assay was performed using scintillation proximity assay (SPA) beads (RPNQ0001) from PerkinElmer and cell membranes from the Amylin 3(a)/CRE-luc cells (as described in Assay (II)) were used. Membranes were prepared in the following way; the cells were rinsed with PBS and incubated with Versene for approximately 5 min before harvesting. The cells were flushed with PBS and the cell-suspension was centrifuged for 5 min at 1000 rpm. Cells were homogenized (ultrathurrax) in a buffer containing 20 mM Na-HEPES and 10 mM EDTA (pH 7.4) and centrifuged at 20.000 rpm for 15 min. The resulting pellet was resuspended, homogenized and centrifuged (20.000 rpm, 15 min) in a buffer containing 20 mM Na-HEPES and 0.1 mM EDTA (pH 7.4, buffer 2). The resulting pellet was resuspended in buffer 2 and protein concentration was measured (BCA protein Assay, Pierce). The homogenate was kept cold during the whole procedure. The membranes were kept at −80° C. until use. The assay was performed in a 384 well Optiplate (PerkinElmer) in a total volume of 40 ul. Membranes were mixed with SPA beads. Final concentration of membranes 35 ng/μL final and SPA beads was 0.05 mg/well. Test-compounds were dissolved in DMSO and further diluted in assay buffer (50 mM Hepes, pH 7.4, 1 mM CaCl2, 5 mM MgCl₂, 0.1% OA and 0.02% Tween20). […] The final mixture was incubated with shaking at 400 rpm for 120 min at 25° C. prior to centrifugation (1500 rpm, 10 min). Samples were analyzed on TopCounter™ (Packard). The IC₅₀ was calculated using (one site binding competition analysis) GraphPad Prism5 as a measure of receptor affinity.

Binder	IC50
B3	0.143 nM
B4	1.14 nM
B5	0.217 nM
B6	1.14 nM
B7	0.577 nM

Each binder was assayed against T4, human amylin receptor (human calcitonin receptor co-expressed with RAMP-3; amylin 3(a) receptor) (human, UniProt P30988 25-474; O60896 24-148, limits assumed) (assay: ratio of hCTR binding IC50 to hAmylin-R binding IC50 (reference: human calcitonin receptor)).
T4 construct: whole, on cells; Used as cell membranes prepared from Amylin 3(a)/CRE-luc BHK cells (Assay V), not as intact cells; also called hAmylin-R; hAmylinR
T4 sequence (looked up) 1: T1 sequence (looked up)
T4 sequence (looked up) 2: T2 sequence (looked up) 2
Outline: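 Competition binding by SPA with cell membranes (35 ng/μL) and SPA beads in 50 mM Hepes pH 7.4 with 1 mM CaCl2, 5 mM MgCl2, 0.1% OA and 0.02% Tween20. Incubated 120 min at 25 °C with shaking, then counted.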

Binder	Ratio hCT/hAmylin binding
B1	63
B2	51.6
